The test deals with T1, His-Gβ1/Gγ2(C68S) (human, UniProt P62873 1-340; P59768 1-71, C68S).
T1 construct: human Gβ1 (GNB1); human Gγ2 (GNG2) with C68S; also called Gβγ; Gβγ(C68S); source: Sf9, baculovirus (pFastBac Dual), co-expressed, purified (TALON, gel filtration); not shown: His6, N-terminal, kept
As to the kind of experiment: AlphaScreen or HTRF; TR-FRET Gα/Gβγ interaction assay: 4 nM biotinylated avi-Gα with streptavidin XL665, 2 nM His-Gβ1/γ2(C68S) with anti-6His-Tb cryptate, cyclic peptide 0-10,000 nM; 1X PBS 7.4, 2 mM DTT, 0.1% BSA, 2 mM MgCl2, 0.05% Tween, 0.5 mM GDP, 2 h at room temperature. Conditions: both partners purified. A general note: Alpha assays give light when donor and acceptor beads are brought close together.

T1 sequence (P62873 whole entry, chain 1 of 2): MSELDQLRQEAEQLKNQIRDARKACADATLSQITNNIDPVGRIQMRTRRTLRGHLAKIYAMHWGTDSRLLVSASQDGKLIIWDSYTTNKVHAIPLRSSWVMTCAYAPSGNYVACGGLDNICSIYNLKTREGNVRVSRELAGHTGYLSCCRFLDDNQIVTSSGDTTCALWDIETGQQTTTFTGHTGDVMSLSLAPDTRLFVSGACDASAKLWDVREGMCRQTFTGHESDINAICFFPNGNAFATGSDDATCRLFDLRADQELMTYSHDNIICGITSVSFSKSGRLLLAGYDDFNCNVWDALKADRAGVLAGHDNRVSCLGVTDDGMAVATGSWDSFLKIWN
T1 sequence (P59768 whole entry C68S, chain 2 of 2): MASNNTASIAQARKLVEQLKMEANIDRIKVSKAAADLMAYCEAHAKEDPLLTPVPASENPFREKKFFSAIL

B1: Biotinylated Avi-Gαs (WT), residues 7-380 of the short isoform of human Gαs (natural protein)
chain: SKTEDQRNEEKAQREANKKIEKQLQKDKQVYRATHRLLLLGAGESGKSTIVKQMRILHVNGFNGDSEKATKVQDIKNNLKEAIETIVAAMSNLVPPVELANPENQFRVDYILSVMNVPDFDFPPEFYEHAKALWEDEGVRACYERSNEYQLIDCAQYFLDKIDVIKQADYVPSDQDLLRCRVLTSGIFETKFQVDKVNFHMFDVGGQRDERRKWIQCFNDVTAIIFVVASSSYNMVIREDNQTNRLQEALNLFKSIWNNRWLRTISVILFLNKQDLLAEKVLAGKSKIEDYFPEFARYTTPEDATPEPGEDPRVTRAKYFIRDEFLRISTASGDGRHYCYPHFTCAVDTENIRRVFNDCRDIIQRMHLRQYELL
modifications: biotin on the Avi tag (BirA)
notes: human Gαs (GNAS), short isoform, residues 7-380; Loaded with GNP (GppNHp) or GDP; the nucleotide state is told by the assay; also called Gαs/GNP; Gαs/GDP; source: E. coli BL21(DE3), purified (TALON, Drice cleavage, BirA biotinylation, Source-15Q, gel filtration); not shown: Avi tag, N-terminal, kept; His6, N-terminal, cleaved
B1: the binding result is reported as “binds”.

For the origin of these results see PMC9747239, “State-selective modulation of heterotrimeric Gαs signaling with macrocyclic peptides” (Cell, 2022).
